{"source": "FireProtDB (doi:10.1074/jbc.271.51.32729)", "proteins": {"B1": {"name": "Ribonuclease HI wild type, P0A7Y4 (protein)", "chain": "MLKQVEIFTDGSCLGNPGPGGYGAILRYRGREKTFSAGYTRTTNNRMELMAAIVALEALKEHCEVILSTDSQYVRQGITQWIHNWKKRGWKTADKKPVKNVDLWQRLDAALGQHQIKWEWVKGHAGHPENERCDELARAAAMNPTLEDTGYQVEV"}}, "details": "Escherichia coli (strain K12), Thermal, CD, reversible: yes, whole UniProt chain shown"}
{"protein": "B1", "values": [{"measurement": "Tm", "setting": "pH 3, glycine-HCl 10 mM", "result": 50, "unit": "°C"}, {"measurement": "unfolding enthalpy (van 't Hoff)", "setting": "pH 3, glycine-HCl 10 mM", "result": 95.1, "unit": "kcal/mol"}, {"measurement": "Tm", "setting": "pH 9, glycine-NaOH 50 mM", "result": 47, "unit": "°C"}]}
